This passage reports Kd results from paper doi:10.1101/829945.

The assay has as its target fibrin fragment E. Briefly: SPR.

For “soluble recombinant human αVβ3-integrin (from UniProt P06756 31-1048; P05106 27-718) (receptor)”, the Kd (in general, the concentration at which binding is half-saturated) lay within 2 to 20 nM.
